Results taken from article PMC10743564, “Acceleration of Protein Degradation by 20S Proteasome-Binding Peptides Generated by In Vitro Artificial Evolution” (International Journal of Molecular Sciences, 2023).
Where no end group is shown, it is not given here. BAED = biotinylated photoreactive group derived from Sulfo-SBED

Assays:
26S holoenzyme = 26S holoenzyme (Homo sapiens, UniProt P25787+P60900); assay: Photoaffinity labeling of 26S holoenzyme; format: binding; settings: after UV irradiation
Method: (§1) The reaction mixture was exposed to UV light (365 nm) for 30 min on ice, and proteins were separated by SDS-PAGE, transferred onto a polyvinylidene difluoride membrane (ATTO Co., Ltd., Tokyo, Japan), and probed with horseradish peroxidase-conjugated streptavidin (Cytiva, Danaher Co., Washington, DC, USA). Chemiluminescence images were obtained using an ImageQuant LAS-4000 instrument (Cytiva). Isoelectric focusing for 2D-PAGE was performed using a DiscRun AE-6541 apparatus (ATTO Co., Ltd.) according to the manufacturer’s protocol. To identify the subunits of the 20S CP by LC-MS analysis, all bands visible following CBB staining were excised, dehydrated with acetonitrile for 10 min, and centrifuged in vacuo to dryness. Dried samples were placed in trypsin solution, and hydrolysis was carried out at 37 °C for 16 h. Reaction products were recovered using 0.1% formic acid and analyzed by LC-MS-IT-TOF (Shimadzu Corporation, Kyoto, Japan) and Mascot Version 2.4 (Matrix Science, London, UK).

human 20S proteasome = human 20S proteasome (Homo sapiens, UniProt P25787+P60900); assay: Photoaffinity labeling of 20S CP; format: binding; settings: UV 365 nm, 2D-PAGE, LC-MS identification
Method: After the reaction, the product was purified by reversed-phase HPLC, and molecular weight was confirmed by mass spectrometry, as described above.
as §1

U251 cells = assay: Cell growth inhibition assay (CellTiter-Glo); format: cell-based, human
Method: The U251 cell line was kindly provided by Prof. Koji Kawakami (Kyoto University). RPMI8226 and SH-SY5Y cell lines were obtained from RIKEN BRC Cell Bank (Chiba, Japan). U251 and RPMI8226 cells were grown and maintained in RPMI1640 medium (Nacalai Tesque Inc.) supplemented with 10% fetal bovine serum, 100 units/mL penicillin, and 100 μg/mL streptomycin at 37 °C in 5% CO2. SH-SY5Y cells were grown and maintained in DMEM medium (Nacalai Tesque Inc.) supplemented with 10% fetal bovine serum, 100 units/mL penicillin, and 100 μg/mL streptomycin at 37 °C in 5% CO2.
U251, RPMI8226, or SH-SY5Y cells were seeded in triplicate wells in a 96-well plate at a density of 5 × 10^3 cells/well and incubated with various concentrations (0.1–100 µM) of inhibitory compounds dissolved in DMSO for 24 or 48 h. The amount of intracellular ATP was determined by CellTiter-Glo Luminescent Cell Viability Assay (Promega Co.) according to the manufacturer’s protocol. Intracellular proteasome activity was measured using the Proteasome-Glo Assay reagent (Promega Co.) according to the manufacturer’s protocol.

[1] = biological target: T1, intracellular proteasomes of U251 cells (Homo sapiens, UniProt P25787+P60900); assay: Intracellular proteasome CT-L activity (Proteasome-Glo) in U251 cells; format: cell-based
T1 construct: endogenous in cells; host or cells: U251, RPMI8226, SH-SY5Y
Method: Intracellular proteasome activity was measured using the Proteasome-Glo Assay reagent (Promega Co.) according to the manufacturer’s protocol [46].

Compound	Photoaffinity labeling of 26S holoenzyme (in words) (26S holoenzyme)	Photoaffinity-labeled subunits of 20S CP (human 20S proteasome)	Cell death (in words) (U251 cells)	Effect on CT-L activity of intracellular proteasomes (in words) [1]
BAED-20S-BP1(5-12): photoreactive biotinylated peptide: 20S-BP1(5-12) with N-terminal BAED group, made with Sulfo-SBED ({BAED}-SRLRHWWR)	no detectable labeling	α1 and β4 subunits		
CC(C)C[C@H](NC(=O)[C@H](Cc1ccccc1)NC(=O)c1cnccn1)B(O)O [bortezomib]			induced cancer cell death	did not increase CT-L activity to the same degree
